*1 amine or outer side, *2 acyl side, *3 side chain or, on linkers, in order; H or OH if unused. Side-chain parts run from the residue outwards. The star is where a group is joined. C18 diacid = O=C(O)CCCCCCCCCCCCCCCCC(=O)*; γGlu = O=C(O)[C@H](CCC(=O)[*:2])N[*:1]; Isovaleryl = CC(C)CC(=O)*; Ahx = NCCCCCC(=O)O
T1: human NPY2 receptor (human, UniProt P49146 1-381)
T1 construct: whole, on cells; also called hNPY2-R; hNPY2R
T1 sequence (looked up): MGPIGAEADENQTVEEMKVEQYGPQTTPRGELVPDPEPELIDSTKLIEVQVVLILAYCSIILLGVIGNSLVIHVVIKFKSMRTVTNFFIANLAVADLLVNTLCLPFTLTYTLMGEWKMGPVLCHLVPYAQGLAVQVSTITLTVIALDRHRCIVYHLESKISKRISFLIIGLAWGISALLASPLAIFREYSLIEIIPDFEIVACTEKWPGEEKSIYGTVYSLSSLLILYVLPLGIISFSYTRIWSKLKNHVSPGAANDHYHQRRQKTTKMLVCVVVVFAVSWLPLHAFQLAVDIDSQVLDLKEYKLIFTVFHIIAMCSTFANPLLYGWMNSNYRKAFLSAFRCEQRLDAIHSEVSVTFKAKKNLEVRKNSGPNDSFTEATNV


molecular target: T1, human NPY2 receptor; assay: RLB: displacement of 125I-PYY(1-36) from hNPY2R membranes

Ki | Binder
5.86 nM | Isovaleryl-APEK([Ahx-γGlu-C18 diacid])PEEDATPEELQRYYVGLRHYYNWLTRQRY-NH2 (SMILES CC(C)CC(=O)N[C@@H](C)C(=O)N1CCC[C@H]1C(=O)N[C@@H](CCC(=O)O)C(=O)N[C@@H](CCCCNC(=O)CCCCCNC(=O)CC[C@H](NC(=O)CCCCCCCCCCCCCCCCC(=O)O)C(=O)O)C(=O)N1CCC[C@H]1C(=O)N[C@@H](CCC(=O)O)C(=O)N[C@@H](CCC(=O)O)C(=O)N[C@@H](CC(=O)O)C(=O)N[C@@H](C)C(=O)N[C@H](C(=O)N1CCC[C@H]1C(=O)N[C@@H](CCC(=O)O)C(=O)N[C@@H](CCC(=O)O)C(=O)N[C@@H](CC(C)C)C(=O)N[C@@H](CCC(N)=O)C(=O)N[C@@H](CCCNC(=N)N)C(=O)N[C@@H](Cc1ccc(O)cc1)C(=O)N[C@@H](Cc1ccc(O)cc1)C(=O)N[C@H](C(=O)NCC(=O)N[C@@H](CC(C)C)C(=O)N[C@@H](CCCNC(=N)N)C(=O)N[C@@H](Cc1c[nH]cn1)C(=O)N[C@@H](Cc1ccc(O)cc1)C(=O)N[C@@H](Cc1ccc(O)cc1)C(=O)N[C@@H](CC(N)=O)C(=O)N[C@@H](Cc1c[nH]c2ccccc12)C(=O)N[C@@H](CC(C)C)C(=O)N[C@H](C(=O)N[C@@H](CCCNC(=N)N)C(=O)N[C@@H](CCC(N)=O)C(=O)N[C@@H](CCCNC(=N)N)C(=O)N[C@@H](Cc1ccc(O)cc1)C(N)=O)[C@@H](C)O)C(C)C)[C@@H](C)O) [Compound 44]
2.59 nM | Isovaleryl-APEK([Ahx-γGlu-C18 diacid])PEEDATPEELQRYYVQLRHYYNWLTRQRY-NH2 (SMILES CC(C)CC(=O)N[C@@H](C)C(=O)N1CCC[C@H]1C(=O)N[C@@H](CCC(=O)O)C(=O)N[C@@H](CCCCNC(=O)CCCCCNC(=O)CC[C@H](NC(=O)CCCCCCCCCCCCCCCCC(=O)O)C(=O)O)C(=O)N1CCC[C@H]1C(=O)N[C@@H](CCC(=O)O)C(=O)N[C@@H](CCC(=O)O)C(=O)N[C@@H](CC(=O)O)C(=O)N[C@@H](C)C(=O)N[C@H](C(=O)N1CCC[C@H]1C(=O)N[C@@H](CCC(=O)O)C(=O)N[C@@H](CCC(=O)O)C(=O)N[C@@H](CC(C)C)C(=O)N[C@@H](CCC(N)=O)C(=O)N[C@@H](CCCNC(=N)N)C(=O)N[C@@H](Cc1ccc(O)cc1)C(=O)N[C@@H](Cc1ccc(O)cc1)C(=O)N[C@H](C(=O)N[C@@H](CCC(N)=O)C(=O)N[C@@H](CC(C)C)C(=O)N[C@@H](CCCNC(=N)N)C(=O)N[C@@H](Cc1c[nH]cn1)C(=O)N[C@@H](Cc1ccc(O)cc1)C(=O)N[C@@H](Cc1ccc(O)cc1)C(=O)N[C@@H](CC(N)=O)C(=O)N[C@@H](Cc1c[nH]c2ccccc12)C(=O)N[C@@H](CC(C)C)C(=O)N[C@H](C(=O)N[C@@H](CCCNC(=N)N)C(=O)N[C@@H](CCC(N)=O)C(=O)N[C@@H](CCCNC(=N)N)C(=O)N[C@@H](Cc1ccc(O)cc1)C(N)=O)[C@@H](C)O)C(C)C)[C@@H](C)O) [Compound 51]
8.97 nM | Isovaleryl-APEK([Ahx-γGlu-C18 diacid])PEEDATPEEAQRYYVSLRHYYNWLTRQRY-NH2 (SMILES CC(C)CC(=O)N[C@@H](C)C(=O)N1CCC[C@H]1C(=O)N[C@@H](CCC(=O)O)C(=O)N[C@@H](CCCCNC(=O)CCCCCNC(=O)CC[C@H](NC(=O)CCCCCCCCCCCCCCCCC(=O)O)C(=O)O)C(=O)N1CCC[C@H]1C(=O)N[C@@H](CCC(=O)O)C(=O)N[C@@H](CCC(=O)O)C(=O)N[C@@H](CC(=O)O)C(=O)N[C@@H](C)C(=O)N[C@H](C(=O)N1CCC[C@H]1C(=O)N[C@@H](CCC(=O)O)C(=O)N[C@@H](CCC(=O)O)C(=O)N[C@@H](C)C(=O)N[C@@H](CCC(N)=O)C(=O)N[C@@H](CCCNC(=N)N)C(=O)N[C@@H](Cc1ccc(O)cc1)C(=O)N[C@@H](Cc1ccc(O)cc1)C(=O)N[C@H](C(=O)N[C@@H](CO)C(=O)N[C@@H](CC(C)C)C(=O)N[C@@H](CCCNC(=N)N)C(=O)N[C@@H](Cc1c[nH]cn1)C(=O)N[C@@H](Cc1ccc(O)cc1)C(=O)N[C@@H](Cc1ccc(O)cc1)C(=O)N[C@@H](CC(N)=O)C(=O)N[C@@H](Cc1c[nH]c2ccccc12)C(=O)N[C@@H](CC(C)C)C(=O)N[C@H](C(=O)N[C@@H](CCCNC(=N)N)C(=O)N[C@@H](CCC(N)=O)C(=O)N[C@@H](CCCNC(=N)N)C(=O)N[C@@H](Cc1ccc(O)cc1)C(N)=O)[C@@H](C)O)C(C)C)[C@@H](C)O) [Compound 54]
6.17 nM | Isovaleryl-APEK([Ahx-γGlu-C18 diacid])PEEIATPEELQRYYVSLRHYYNWLTRQRY-NH2 (SMILES CC[C@H](C)[C@H](NC(=O)[C@H](CCC(=O)O)NC(=O)[C@H](CCC(=O)O)NC(=O)[C@@H]1CCCN1C(=O)[C@H](CCCCNC(=O)CCCCCNC(=O)CC[C@H](NC(=O)CCCCCCCCCCCCCCCCC(=O)O)C(=O)O)NC(=O)[C@H](CCC(=O)O)NC(=O)[C@@H]1CCCN1C(=O)[C@H](C)NC(=O)CC(C)C)C(=O)N[C@@H](C)C(=O)N[C@H](C(=O)N1CCC[C@H]1C(=O)N[C@@H](CCC(=O)O)C(=O)N[C@@H](CCC(=O)O)C(=O)N[C@@H](CC(C)C)C(=O)N[C@@H](CCC(N)=O)C(=O)N[C@@H](CCCNC(=N)N)C(=O)N[C@@H](Cc1ccc(O)cc1)C(=O)N[C@@H](Cc1ccc(O)cc1)C(=O)N[C@H](C(=O)N[C@@H](CO)C(=O)N[C@@H](CC(C)C)C(=O)N[C@@H](CCCNC(=N)N)C(=O)N[C@@H](Cc1c[nH]cn1)C(=O)N[C@@H](Cc1ccc(O)cc1)C(=O)N[C@@H](Cc1ccc(O)cc1)C(=O)N[C@@H](CC(N)=O)C(=O)N[C@@H](Cc1c[nH]c2ccccc12)C(=O)N[C@@H](CC(C)C)C(=O)N[C@H](C(=O)N[C@@H](CCCNC(=N)N)C(=O)N[C@@H](CCC(N)=O)C(=O)N[C@@H](CCCNC(=N)N)C(=O)N[C@@H](Cc1ccc(O)cc1)C(N)=O)[C@@H](C)O)C(C)C)[C@@H](C)O) [Compound 45]
11.6 nM | Isovaleryl-APEK([Ahx-γGlu-C18 diacid])PEEDATPEELQRYYVLLRHYYNWLTRQRY-NH2 (SMILES CC(C)CC(=O)N[C@@H](C)C(=O)N1CCC[C@H]1C(=O)N[C@@H](CCC(=O)O)C(=O)N[C@@H](CCCCNC(=O)CCCCCNC(=O)CC[C@H](NC(=O)CCCCCCCCCCCCCCCCC(=O)O)C(=O)O)C(=O)N1CCC[C@H]1C(=O)N[C@@H](CCC(=O)O)C(=O)N[C@@H](CCC(=O)O)C(=O)N[C@@H](CC(=O)O)C(=O)N[C@@H](C)C(=O)N[C@H](C(=O)N1CCC[C@H]1C(=O)N[C@@H](CCC(=O)O)C(=O)N[C@@H](CCC(=O)O)C(=O)N[C@@H](CC(C)C)C(=O)N[C@@H](CCC(N)=O)C(=O)N[C@@H](CCCNC(=N)N)C(=O)N[C@@H](Cc1ccc(O)cc1)C(=O)N[C@@H](Cc1ccc(O)cc1)C(=O)N[C@H](C(=O)N[C@@H](CC(C)C)C(=O)N[C@@H](CC(C)C)C(=O)N[C@@H](CCCNC(=N)N)C(=O)N[C@@H](Cc1c[nH]cn1)C(=O)N[C@@H](Cc1ccc(O)cc1)C(=O)N[C@@H](Cc1ccc(O)cc1)C(=O)N[C@@H](CC(N)=O)C(=O)N[C@@H](Cc1c[nH]c2ccccc12)C(=O)N[C@@H](CC(C)C)C(=O)N[C@H](C(=O)N[C@@H](CCCNC(=N)N)C(=O)N[C@@H](CCC(N)=O)C(=O)N[C@@H](CCCNC(=N)N)C(=O)N[C@@H](Cc1ccc(O)cc1)C(N)=O)[C@@H](C)O)C(C)C)[C@@H](C)O) [Compound 49]
1.54 nM | Isovaleryl-APAK([Ahx-γGlu-C18 diacid])PEEAATPEELQRYYISLRHYYNWLTRQRY-NH2 (SMILES CC[C@H](C)[C@H](NC(=O)[C@H](Cc1ccc(O)cc1)NC(=O)[C@H](Cc1ccc(O)cc1)NC(=O)[C@H](CCCNC(=N)N)NC(=O)[C@H](CCC(N)=O)NC(=O)[C@H](CC(C)C)NC(=O)[C@H](CCC(=O)O)NC(=O)[C@H](CCC(=O)O)NC(=O)[C@@H]1CCCN1C(=O)[C@@H](NC(=O)[C@H](C)NC(=O)[C@H](C)NC(=O)[C@H](CCC(=O)O)NC(=O)[C@H](CCC(=O)O)NC(=O)[C@@H]1CCCN1C(=O)[C@H](CCCCNC(=O)CCCCCNC(=O)CC[C@H](NC(=O)CCCCCCCCCCCCCCCCC(=O)O)C(=O)O)NC(=O)[C@H](C)NC(=O)[C@@H]1CCCN1C(=O)[C@H](C)NC(=O)CC(C)C)[C@@H](C)O)C(=O)N[C@@H](CO)C(=O)N[C@@H](CC(C)C)C(=O)N[C@@H](CCCNC(=N)N)C(=O)N[C@@H](Cc1c[nH]cn1)C(=O)N[C@@H](Cc1ccc(O)cc1)C(=O)N[C@@H](Cc1ccc(O)cc1)C(=O)N[C@@H](CC(N)=O)C(=O)N[C@@H](Cc1c[nH]c2ccccc12)C(=O)N[C@@H](CC(C)C)C(=O)N[C@H](C(=O)N[C@@H](CCCNC(=N)N)C(=O)N[C@@H](CCC(N)=O)C(=O)N[C@@H](CCCNC(=N)N)C(=O)N[C@@H](Cc1ccc(O)cc1)C(N)=O)[C@@H](C)O) [Compound 48]

Source: patent US20260015399A1 (Boehringer Ingelheim, published 2026)
